In assay [1] the test system is uncomplexed β-catenin. Kind of assay: Uncomplexed β-catenin in HCT116 wild type or mutant β-catenin allele clones. The assay is classed as cell-based, human. To be noted: FRP1-HA transfection. The method, then:
(§1) β-catenin levels were assessed using the GST-E-cadherin binding assay, which has been previously described (Bafico et al., (1998) Oncogene 16:2819-2825). Briefly, bacterially expressed GST-E-cadherin was purified with glutathione-Sepharose beads and incubated with 1 mg of each cell lysate. The GST-E-cadherin/[…]-catenin complex bound to the beads was recovered by centrifugation and analyzed by SDS-PAGE followed by immunoblotting. The uncomplexed β-catenin was detected using a monoclonal antibody to β-catenin (Transduction Laboratories). Unphosphorylated β-catenin was detected with a monoclonal antibody specific for β-catenin dephosphorylated at residues 27-37 (Alexis, Läufelfingen, Switzerland). FRP1-HA and DKK1-HA were detected with an anti-HA monoclonal antibody (Hybridoma Center, Mount Sinai School of Medicine, New York).
HCT116 parental cells and clones expressing either the wild type or mutant β-catenin allele were transfected with FRP1-HA and subjected to the GST-E-cadherin binding assay (described in Example 3) to examine the effect of FRP1 on uncomplexed β-catenin levels. Uncomplexed β-catenin was detected with anti-β-catenin antibody. The levels of FRP1 in the lysates were detected with an anti-HA antibody. […]

In assay [2] the test system is TCF-dependent reporter activity. The assay is described as follows: TOP-Glow/FOP-Glow TCF reporter assay in HCT116 wild type β-catenin allele clone. The assay is classed as cell-based, human. As for the experimental part: TCF responsive elements operably linked to a reporter (TOP-Glow, wild type, or FOP-Glow, mutant) were analyzed for transcriptional activity in […]. HCT116 (ATCC No. CCL-247) cells containing the wild type β-catenin allele were plated at 3×10^5 per well in 6-well plates and co-transfected with 1 μg of either the TOP-glow or FOP-glow plasmids (Upstate Biotechnology) and 0.001 μg of the Renilla control plasmid (pRL-CMV) utilizing FuGene® (Roche) according to the manufacturer's instructions. After 48 hours cells were lysed and analyzed utilizing the Dual Luciferase Reporter Assay system (Promega).
(A reporter such as luciferase makes a cellular process visible.)

The next assay has as its system MYC. The assay is described as follows: Northern blot of Myc in HCT116 clone. The note with it: HCT116 wild type allele-containing clone. The assay is classed as cell-based, human. An excerpt: (§2) We next assessed the effects of FRP1 inhibition on the expression of Id2, Cyclin D1 and Myc, known targets of Wnt/β-catenin in colorectal cancer (Rockman et al. (2001) J. Biol. Chem. 276:45113-45119; Tetsu and McCormick (1999) Nature 398:422-426; He et al. (1998) Science 281:1509-1512). RNAs were extracted from HCT116 parental cells, and either wild type or mutant β-catenin allele containing clones transfected with either vector control or FRP1-HA using Triazol (Invitrogen). The RNAs were separated by (1%) agarose gel electrophoresis and transferred to a nylon membrane (Hybond®, Pharmacia). Probes were labeled by the Random Prime Labelling System method (Amersham Biosciences), and hybridization was performed overnight utilizing the Hybrisol I solution (Serologicals Corporation) according to the manufacturer's instructions. Normalization was performed utilizing a commercial human GADPH control probe (BD Biosciences Clontech).

For the next assay, the system named is ID2. Kind of assay: Northern blot of Id2 in HCT116 clones. The assay is classed as cell-based, human. The note with it: HCT116 wild type β-catenin allele clone.
Description: as §2

The subject of the next assay is MDAMB157 cells. The assay is described as follows: Saturation density (cell counts) of MDAMB157 cells. The assay is classed as cell-based, human. The note with it: MDAMB157 over-expressing antagonist vs vector transduced parental cells. As for the experimental part: MDAMB157 cells exogenously expressing either vector control, FRP1 or DKK I were transferred at 1.5×10^5 cells per well in 6-well plates. Cell counts were performed in duplicate at the indicated times, and values represent the mean of two independent experiments.

Assay [3] has as its system uncomplexed β-catenin. Kind of assay: GST-E-cadherin binding assay / immunoblot, NIH3T3 cells expressing β-catenin under Tet promoter. The assay is classed as cell-based, mouse. The note with it: β-catenin under tet regulatable promoter, purified DKK1 (10 nM). As for the experimental part:
as §1, with “York). […]” for “York).”

For assay [4], the system named is uncomplexed β-catenin. Kind of assay: Uncomplexed β-catenin in HCC38 and other positive breast cancer cell lines. The assay is classed as cell-based, human. The note with it: HCC38 and several positive breast cancer lines; DKK1-containing conditioned media for two hours. As for the experimental part:
as §1
In addition, we have analyzed about 20 additional human breast cancer cell lines for increased levels of uncomplexed β-catenin. Analysis of uncomplexed β-catenin levels was performed as described in Example 3 utilizing 1 mg of total cell lysate. A monoclonal antibody to β-catenin (Transduction Laboratories) was utilized for immunoblotting. We found increased levels of uncomplexed β-catenin in 6 of these cell lines (FIG. 3A, lanes 1, 3, 4 and data not shown). We have also analyzed DKK inhibition of autocrine Wnt signaling in HCC38 breast cancer cells. […]

B1: FRP1: human secreted Frizzled Related Protein 1, Wnt antagonist; expressed from pBabe-derived retrovirus with carboxy-terminal HA tag (protein, UniProt Q8N474 32-314, looked up)
Secreted frizzled-related …: SEYDYVSFQSDIGPYQSGRFYTKPPQCVDIPADLRLCHNVGYKKMVLPNLLEHETMAEVKQQASSWVPLLNKNCHAGTQVFLCSLFAPVCLDRPIYPCRWLCEAVRDSCEPVMQFFGFYWPEMLKCDKFPEGDVCIAMTPPNATEASKPQGTTVCPPCDNELKSEAIIEHLCASEFALRMKIKEVKKENGDKKIVPKKKKPLKLGPIKKKDLKKLVLYLKNGADCPCHQLDNLSHHFLIMGRKVKSQYLLTAIHKWDKKNKEFKNFMKKMKNHECPTFQSVFK
modifications: C-terminal HA tag
notes: human secreted Frizzled Related Protein 1, Wnt antagonist; expressed from pBabe-derived retrovirus with carboxy-terminal HA tag
With B1, the “uncomplexed β-catenin levels” value with uncomplexed β-catenin [1] (HCT116 clone containing only the mutant β-catenin allele) was “little if any effect”. Moreover, in the assay on uncomplexed β-catenin [1] (HCT116 wild type β-catenin allele-containing clone), the β-catenin levels entry was “dramatic reduction”. Besides, the TCF-dependent reporter activity entry in assay [2] is given as “able to inhibit”. Further, the “expression of Myc” value with MYC was “dramatically inhibited”. In the assay with ID2, the Id2 transcript level entry is “reduction”. In addition, the saturation density result in the assay with MDAMB157 cells was “decreased saturation density”.

B2: DKK1: Dickkopf-1, secreted Wnt antagonist protein that binds Wnt co-receptor LRP6; used purified, in conditioned media or retrovirally expressed with HA tag (protein, UniProt O94907 32-266, looked up)
Dickkopf-related protein 1: TLNSVLNSNAIKNLPPPLGGAAGHPGSAVSAAPGILYPGGNKYQTIDNYQPYPCAEDEECGTDEYCASPTRGGDAGVQICLACRKRRKRCMRHAMCCPGNYCKNGICVSSDQNHFRGEIEETITESFGNDHSTLDGYSRRTTLSSKMYHTKGQEGSVCLRSSDCASGLCCARHFWSKICKPVLKEGQVCTKHRRKGSHGLEIFQRCYCGEGLSCRIQKDHHQASNSSRLHTCQRH
modifications: HA tag in some uses
Consider B2, for which the “uncomplexed β-catenin induced by exogenous β-catenin” value with uncomplexed β-catenin [3] was “no effect”. In addition, the “uncomplexed β-catenin levels” value in the assay on uncomplexed β-catenin [4] is listed as “striking reduction”. The saturation density result in the assay on MDAMB157 cells is “decreased saturation density”.

The values are drawn from patent US8809287B2, “Compositions and methods for altering Wnt autocrine signaling” (Icahn School of Medicine at Mount Sinai, priority 2004, dated 2014).
